Measured values: US20240343811A1 (SHANDONG SIMCERE BIOPHARMACUTICAL, published 2024)
Numbering of substitutions follows the chain as printed. Several values for one entry are separate records, joined by “and”; a condition that tells them apart may be missing. Equal entries are not always repeated. Where two headings read alike, the source gives them in different places. Blank lines part the entries; values can stand above or below the binder they belong to.

How the values were obtained:
[1] = molecular target: T1, CD16 on primary human NK cells (human, UniProt P08637 17-254); assay: FACS on human NK cells, biotinylated antibody
T1 construct: whole, on cells; also called resting NK cells

[2] = molecular target: T2, human CD16a (158V), full length, on cells (human, UniProt P08637 17-254); assay: cell-based or functional assay
[3] = molecular target: T3, cynomolgus monkey CD16, full length, on FlpinCHO cells (cynomolgus monkey, UniProt Q8SPW2 17-254); assay: FACS on FlpinCHO cells
T3 construct: also called FlpinCHO-cyno CD16; Flipin CHO-cyno CD16
In short: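 FlpinCHO cells expressing full-length cynomolgus CD16, blocked in PBS/2% BSA at 2×10⁶ cells/ml, incubated with antibody at various concentrations 1 h on ice. Flow cytometry MFI fitted to give EC50.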

[4] = molecular target: T1, CD16 on primary human NK cells; assay: FACS on human NK cells, biotinylated antibody, +10 mg/mL human immunoglobulin
Human CD16a (158F)-his = molecular target: T4, Human CD16a (158F)-his (human); assay: SPR (Biacore), antibody captured on Protein A
T4 construct: entry holds ECD, AVI tag, linker and His tag
In short: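 Protein A–captured antibody was probed with CD16-his ECD in HBS-EP+ at 25 °C: five 2-fold dilutions from 200 nM, 240 s at 30 μL/min, dissociation up to 600 s. Glycine pH 1.5 regenerated the chip. Apparent KD came from a double-referenced 1:1 Langmuir fit.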

[5] = molecular target: T2, human CD16a (158V), full length, on …; assay: FACS on FlpinCHO cells
[6] = molecular target: T5, human CD16a (158F), full length, on FlpinCHO cells (human, UniProt P08637 17-254); assay: FACS on FlpinCHO cells
[7] = molecular target: T6, human CD16b (NA2), full length, on FlpinCHO cells (human, UniProt O75015 17-200); assay: FACS on FlpinCHO cells
T6 construct: also called FlpinCHO-human CD16b (NA2)
T6 chain: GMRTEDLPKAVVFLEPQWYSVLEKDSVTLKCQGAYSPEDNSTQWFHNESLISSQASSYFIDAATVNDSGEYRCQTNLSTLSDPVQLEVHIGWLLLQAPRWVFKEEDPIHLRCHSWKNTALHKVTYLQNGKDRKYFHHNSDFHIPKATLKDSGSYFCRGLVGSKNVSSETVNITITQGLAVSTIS
In short: (§1)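 EC50 values come from fitted MFI curves measured by FACS. Antibody dilutions were bound for 1 hour on ice to CD16b-transfected FlpinCHO cells suspended in PBS with 2% BSA blocking solution.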

[8] = molecular target: T7, human CD16b (NA1), full length, on FlpinCHO cells (human, UniProt O75015 17-200); assay: FACS on FlpinCHO cells
T7 construct: also called FlpinCHO-human CD16b (NA1)
T7 chain: T6 chain with S20R, S49N, N66D, I90V
In short: as §1

[9] = molecular target: T2, human CD16a (158V), full length, on …; assay: FACS, biotinylated antibody
[10] = molecular target: T5, human CD16a (158F), full length, on …; assay: FACS, biotinylated antibody
[11] = molecular target: T1, CD16 on primary human NK cells; assay: FACS on human NK cells, biotinylated antibody, +10 mg/mL human immunoglobulin; remark: listed apart in the source
[12] = molecular target: T2, human CD16a (158V), full length, on …; assay: FACS, biotinylated antibody, +10 mg/mL human immunoglobulin
[13] = molecular target: T5, human CD16a (158F), full length, on …; assay: as above
[14] = molecular target: T1, CD16 on primary human NK cells; assay: FACS on human NK cells
In short: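 EC50 came from curve fitting of flow-cytometric MFI. Antibody titrations were bound for 1 hour on ice to fresh human NK cells blocked in PBS with 2% (w/w) BSA (2×10⁶ cells/ml), followed by five PBS washes before acquisition.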

[15] = molecular target: T3, cynomolgus monkey CD16, full length, on …; assay: FACS on FlpinCHO cells; remark: listed apart in the source
Procedure: The required cells were scale-up cultured in a T-75 cell culture flask to the logarithmic growth phase. The medium was aspirated, and the cells were washed twice with a PBS buffer and then digested with trypsin. After the digestion was terminated, the cells were washed twice with the PBS buffer. The cells were counted, and then the cell pellet was resuspended with a [PBS+2% (w/w) BSA] blocking solution to 2×10⁶ cells/ml, and added to a 96-well FACS reaction plate at 50 μl/well. […] 50 μl/well of the antibody to be detected was added at different concentrations, and incubated on ice for 1 hour. […] The mixture was centrifuged and washed 5 times with PBS, and FACS (FACS Canto II, purchased from BD Company) was used for detection and result analysis. Data analysis was performed by software (CellQuest) to obtain the mean fluorescence intensity (MFI) of the cells. Then, software (GraphPad Prism8) was used for analysis, data fitting and EC50 value calculation.
Flipin CHO-cyno CD16 cells were subjected to FACS detection and data analysis according to the method of Example 3.1.

[16] = molecular target: T2, human CD16a (158V), full length, on …; assay: cell-based or functional assay; remark: listed apart in the source
[17] = molecular target: T2, human CD16a (158V), full length, on …; assay: FACS on FlpinCHO cells; remark: listed apart in the source
In short: (§2)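 EC50 comes from fitted concentration–MFI curves. Antibody dilutions were bound to the cells for 1 hour on ice in PBS blocking buffer with 2% BSA, followed by washing and flow cytometric readout.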

[18] = molecular target: T5, human CD16a (158F), full length, on …; assay: FACS on FlpinCHO cells; remark: listed apart in the source
In short: as §2

[19] = molecular target: T6, human CD16b (NA2), full length, on …; assay: FACS on FlpinCHO cells
In short: as §1

[20] = molecular target: T7, human CD16b (NA1), full length, on …; assay: FACS on FlpinCHO cells
In short: as §1

[21] = molecular target: T1, CD16 on primary human NK cells; assay: FACS on human NK cells, biotinylated antibody; remark: listed apart in the source
[22] = molecular target: T2, human CD16a (158V), full length, on …; assay: FACS on FlpinCHO cells; remark: listed apart in the source
[23] = molecular target: T3, cynomolgus monkey CD16, full length, on …; assay: FACS on FlpinCHO cells; remark: listed apart in the source
[24] = molecular target: T6, human CD16b (NA2), full length, on …; assay: FACS on FlpinCHO cells
[25] = molecular target: T5, human CD16a (158F), full length, on …; assay: FACS on FlpinCHO cells; remark: listed apart in the source
[26] = molecular target: T7, human CD16b (NA1), full length, on …; assay: FACS on FlpinCHO cells

T3 sequence (Q8SPW2 other isoform, or with tags, fused parts or gaps limits assumed): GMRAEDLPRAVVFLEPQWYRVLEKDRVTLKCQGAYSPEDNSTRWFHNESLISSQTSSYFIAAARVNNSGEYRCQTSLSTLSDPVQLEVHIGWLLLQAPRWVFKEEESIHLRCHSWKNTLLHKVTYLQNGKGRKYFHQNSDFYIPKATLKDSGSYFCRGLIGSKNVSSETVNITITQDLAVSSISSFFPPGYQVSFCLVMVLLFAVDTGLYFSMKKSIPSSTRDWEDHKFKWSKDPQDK

EC50 [1]: 0.53 nM | Maximum mean fluorescence intensity [1]: 39300 | EC50, activation activity for Jurkat cell [2]: 0.02 nM | Maximum fluorescence value [2]: 158000 | EC50 [3]: 0.83 nM | Maximum mean fluorescence intensity [3]: 18600 | EC50 [4]: 1.69 nM | Maximum mean fluorescence intensity [4]: 38100 | Kd (Human CD16a (158F)-his): 27.6 nM | koff (Human CD16a (158F)-his): 0.0164 s⁻¹ | kon (Human CD16a (158F)-his): 592000 M⁻¹ s⁻¹ | EC50 [5]: 0.64 nM | Maximum mean fluorescence intensity [5]: 7550 | EC50 [6]: 0.6 nM | Maximum mean fluorescence intensity [6]: 8770 | Maximum mean fluorescence intensity [7]: 69800 | EC50 [8]: 1.94 nM | Maximum mean fluorescence intensity [8]: 40600
B1: VHH12-06 humanized VHH-Fc antibody (Fc fusion)
chain: EVQLVESGGGLVQPGGSLRLSCAASGITFSSYAMGWYRQAPGKQRELVAAINRFGLTNYVDSVKGRFTISRDNAKNSVYLQMNSLRAEDTAVYYCNTGGVYSHPDYYTGTYWGQGTMVTVSSEPKSSDKTHTCPPCPAPEEFGGPSVFLFPPKPKDTLMISRTPEVTCVVVAVSHEDPEVKFNWYVDGVEVHNAKTKPREEQYNSTYRVVSVLTVLHQDWLNGKEYKCKVSNKALPAPIEKTISKAKGQPREPQVYTLPPSREEMTKNQVSLTCLVKGFYPSDIAVEWESNGQPENNYKTTPPVLDSDGSFFLYSKLTVDKSRWQQGNVFSCSVMHEALHNHYTQKSLSLSPGK

EC50 [1]: 0.99 nM | Maximum mean fluorescence intensity [1]: 30100 | EC50, activation activity for Jurkat cell [2]: 0.06 nM | Maximum fluorescence value [2]: 149000 | EC50 [9]: 0.58 nM and 0.77 nM | EC50 [10]: 0.41 nM and 0.39 nM | EC50 [3]: 0.62 nM | Maximum mean fluorescence intensity [3]: 20100 | EC50 [4]: 4.3 nM | Maximum mean fluorescence intensity [4]: 28000 | EC50 [11]: 5.4 nM | Maximum mean fluorescence intensity [11]: 30900 | EC50 [12]: 3.32 nM and 2.87 nM | EC50 [13]: 2.97 nM and 2.63 nM | EC50 [14]: 0.84 nM | Maximum mean fluorescence intensity [14]: 2540 | EC50 [15]: 0.58 nM | Maximum mean fluorescence intensity [15]: 29200 | EC50 [5]: 0.54 nM | Maximum mean fluorescence intensity [5]: 8800 | EC50 [6]: 0.56 nM | Maximum mean fluorescence intensity [6]: 9400 | EC50, activation activity for Jurkat cell [16]: 0.04 nM | Maximum fluorescence value [16]: 158000 | EC50 [17]: 0.85 nM and 1.03 nM | EC50 [18]: 0.62 nM and 0.98 nM | EC50 [19]: 14.2 nM and 5.12 nM | EC50 [20]: 3.18 nM and 5.5 nM | Maximum mean fluorescence intensity [7]: 63400 | EC50 [8]: 3.36 nM | Maximum mean fluorescence intensity [8]: 43600 | EC50 [21]: 1.33 nM | Maximum mean fluorescence intensity [21]: 33000
B2: P2C47 scFv-hFc (Fc fusion)
chain: SYVLTQPSSVSVAPGQTATISCGGHNIGSKNVHWYQQRPGQSPVLVIYQDNKRPSGIPERFSGSNSGNTATLTISGTQAMDEADYYCQVWDNYSVLFGGGTKLTVLGGGGSGGGGSGGGGSQVQLVQSGAEVKKPGESLKVSCKASGYTFTSYYMHWVRQAPGQGLEWMGAIEPMYGSTSYAQKFQGRVTMTRDTSTSTVYMELSSLRSEDTAVYYCARGSAYYYDFADYWGQGTLVTVSSEPKSSDKTHTCPPCPAPEEFGGPSVFLFPPKPKDTLMISRTPEVTCVVVAVSHEDPEVKFNWYVDGVEVHNAKTKPREEQYNSTYRVVSVLTVLHQDWLNGKEYKCKVSNKALPAPIEKTISKAKGQPREPQVYTLPPSREEMTKNQVSLTCLVKGFYPSDIAVEWESNGQPENNYKTTPPVLDSDGSFFLYSKLTVDKSRWQQGNVFSCSVMHEALHNHYTQKSLSLSPGK
notes: also called control antibody P2C47

Mean fluorescence intensity [22]: 5870 | Mean fluorescence intensity [23]: 5500 | Mean fluorescence intensity [24]: 24800 | Mean fluorescence intensity [25]: 3080 | Mean fluorescence intensity [26]: 28100
B3: 3G8 antibody as used to check the stably transfected cell lines (Example 1.3) (antibody, V domains shown)
VH: QVTLKESGPGILQPSQTLSLTCSFSGFSLRTSGMGVGWIRQPSGKGLEWLAHIWWDDDKRYNPALKSRLTISKDTSSNQVFLKIASVDTADTATYYCAQINPAWFAYWGQGTLVTVSA
VL: DTVLTQSPASLAVSLGQRATISCKASQSVDFDGDSFMNWYQQKPGQPPKLLIYTTSNLESGIPARFSASGSGTDFTLNIHPVEEEDTATYYCQQSNEDPYTFGGGTKLEIK
notes: also called CD16 antibody
